Measurements reported in patent US20050282743A1, “Molecular interactions in cells” (Arbor Vita Corporation, priority 2001, published 2005).
Ends that are not written are not given here. Peptide text beside a SMILES is read from it. * marks the point of attachment. Biotin = O=C1N[C@H]2[C@H](CS[C@H]2CCCCC(=O)*)N1

Experiments:
Assay in all cases: G' assay (10 uM PL peptide), results of TABLE 7 and TABLE 12
Assay type in all cases: binding
[1] = biological target: T1, PDZ protein (GST-PDZ fusion) (Homo sapiens, UniProt Q5TCQ9)
T1 construct: made in house; host or cells: E. coli (DH5alpha, BL21 or JM109)
T1 sequence (Q5TCQ9 1-1481): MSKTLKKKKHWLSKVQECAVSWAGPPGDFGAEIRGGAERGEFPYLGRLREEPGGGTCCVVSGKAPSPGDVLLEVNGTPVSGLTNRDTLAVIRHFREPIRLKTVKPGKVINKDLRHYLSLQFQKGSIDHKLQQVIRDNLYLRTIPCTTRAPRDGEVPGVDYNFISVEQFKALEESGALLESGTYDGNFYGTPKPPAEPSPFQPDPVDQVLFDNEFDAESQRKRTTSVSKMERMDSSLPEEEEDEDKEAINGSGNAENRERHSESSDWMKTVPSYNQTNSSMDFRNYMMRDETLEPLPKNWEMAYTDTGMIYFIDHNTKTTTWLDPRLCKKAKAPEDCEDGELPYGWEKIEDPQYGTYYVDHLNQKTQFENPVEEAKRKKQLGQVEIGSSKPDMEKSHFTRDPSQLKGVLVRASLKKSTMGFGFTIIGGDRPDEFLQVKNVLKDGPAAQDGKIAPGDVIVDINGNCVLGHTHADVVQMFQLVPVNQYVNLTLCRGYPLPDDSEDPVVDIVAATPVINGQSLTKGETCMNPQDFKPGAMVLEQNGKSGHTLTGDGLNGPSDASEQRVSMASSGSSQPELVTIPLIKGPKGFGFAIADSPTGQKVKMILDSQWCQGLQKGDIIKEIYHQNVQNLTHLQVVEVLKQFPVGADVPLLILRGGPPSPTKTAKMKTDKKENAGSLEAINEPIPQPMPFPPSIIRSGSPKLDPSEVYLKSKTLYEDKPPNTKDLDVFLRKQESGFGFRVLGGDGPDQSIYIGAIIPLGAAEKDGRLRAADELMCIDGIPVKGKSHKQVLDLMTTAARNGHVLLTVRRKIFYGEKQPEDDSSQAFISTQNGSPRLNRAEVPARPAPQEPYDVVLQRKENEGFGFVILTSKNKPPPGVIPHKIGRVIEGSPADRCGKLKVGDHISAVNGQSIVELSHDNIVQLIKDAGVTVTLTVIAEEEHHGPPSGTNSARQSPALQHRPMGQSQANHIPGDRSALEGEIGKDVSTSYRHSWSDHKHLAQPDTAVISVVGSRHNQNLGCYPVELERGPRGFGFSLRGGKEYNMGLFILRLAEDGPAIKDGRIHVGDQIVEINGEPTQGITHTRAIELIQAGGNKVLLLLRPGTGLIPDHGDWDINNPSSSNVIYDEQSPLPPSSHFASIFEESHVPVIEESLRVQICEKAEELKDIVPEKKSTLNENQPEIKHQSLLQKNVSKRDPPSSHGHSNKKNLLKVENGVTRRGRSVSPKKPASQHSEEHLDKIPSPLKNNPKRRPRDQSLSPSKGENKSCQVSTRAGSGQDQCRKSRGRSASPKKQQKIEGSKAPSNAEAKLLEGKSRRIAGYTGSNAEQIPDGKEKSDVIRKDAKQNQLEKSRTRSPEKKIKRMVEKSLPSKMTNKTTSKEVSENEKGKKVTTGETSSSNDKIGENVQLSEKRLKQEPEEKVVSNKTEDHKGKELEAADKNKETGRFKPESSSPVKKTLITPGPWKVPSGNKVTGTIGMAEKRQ
In short: (§1)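 Binding classes derive from A450 nm of bound biotin-tagged PL peptide. A score of 5 needs A450 above 4 in more than two repeats.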

[2] = biological target: T2, PDZ protein (GST-PDZ fusion) (Homo sapiens, UniProt O75970)
T2 construct: made in house; host or cells: E. coli (DH5alpha, BL21 or JM109)
In short: as §1

[3] = biological target: T3, PDZ protein (GST-PDZ fusion) (Homo sapiens, UniProt Q6P0Q8)
T3 construct: made in house; host or cells: E. coli (DH5alpha, BL21 or JM109)
In short: as §1

[4] = biological target: T4, PDZ protein (GST-PDZ fusion) (Homo sapiens, UniProt Q12923)
T4 construct: made in house; host or cells: E. coli (DH5alpha, BL21 or JM109)
In short: as §1

[5] = PDZ KIAA807, PDZ Domain not given

T4 sequence (Q12923 whole entry, the tested form may be a part): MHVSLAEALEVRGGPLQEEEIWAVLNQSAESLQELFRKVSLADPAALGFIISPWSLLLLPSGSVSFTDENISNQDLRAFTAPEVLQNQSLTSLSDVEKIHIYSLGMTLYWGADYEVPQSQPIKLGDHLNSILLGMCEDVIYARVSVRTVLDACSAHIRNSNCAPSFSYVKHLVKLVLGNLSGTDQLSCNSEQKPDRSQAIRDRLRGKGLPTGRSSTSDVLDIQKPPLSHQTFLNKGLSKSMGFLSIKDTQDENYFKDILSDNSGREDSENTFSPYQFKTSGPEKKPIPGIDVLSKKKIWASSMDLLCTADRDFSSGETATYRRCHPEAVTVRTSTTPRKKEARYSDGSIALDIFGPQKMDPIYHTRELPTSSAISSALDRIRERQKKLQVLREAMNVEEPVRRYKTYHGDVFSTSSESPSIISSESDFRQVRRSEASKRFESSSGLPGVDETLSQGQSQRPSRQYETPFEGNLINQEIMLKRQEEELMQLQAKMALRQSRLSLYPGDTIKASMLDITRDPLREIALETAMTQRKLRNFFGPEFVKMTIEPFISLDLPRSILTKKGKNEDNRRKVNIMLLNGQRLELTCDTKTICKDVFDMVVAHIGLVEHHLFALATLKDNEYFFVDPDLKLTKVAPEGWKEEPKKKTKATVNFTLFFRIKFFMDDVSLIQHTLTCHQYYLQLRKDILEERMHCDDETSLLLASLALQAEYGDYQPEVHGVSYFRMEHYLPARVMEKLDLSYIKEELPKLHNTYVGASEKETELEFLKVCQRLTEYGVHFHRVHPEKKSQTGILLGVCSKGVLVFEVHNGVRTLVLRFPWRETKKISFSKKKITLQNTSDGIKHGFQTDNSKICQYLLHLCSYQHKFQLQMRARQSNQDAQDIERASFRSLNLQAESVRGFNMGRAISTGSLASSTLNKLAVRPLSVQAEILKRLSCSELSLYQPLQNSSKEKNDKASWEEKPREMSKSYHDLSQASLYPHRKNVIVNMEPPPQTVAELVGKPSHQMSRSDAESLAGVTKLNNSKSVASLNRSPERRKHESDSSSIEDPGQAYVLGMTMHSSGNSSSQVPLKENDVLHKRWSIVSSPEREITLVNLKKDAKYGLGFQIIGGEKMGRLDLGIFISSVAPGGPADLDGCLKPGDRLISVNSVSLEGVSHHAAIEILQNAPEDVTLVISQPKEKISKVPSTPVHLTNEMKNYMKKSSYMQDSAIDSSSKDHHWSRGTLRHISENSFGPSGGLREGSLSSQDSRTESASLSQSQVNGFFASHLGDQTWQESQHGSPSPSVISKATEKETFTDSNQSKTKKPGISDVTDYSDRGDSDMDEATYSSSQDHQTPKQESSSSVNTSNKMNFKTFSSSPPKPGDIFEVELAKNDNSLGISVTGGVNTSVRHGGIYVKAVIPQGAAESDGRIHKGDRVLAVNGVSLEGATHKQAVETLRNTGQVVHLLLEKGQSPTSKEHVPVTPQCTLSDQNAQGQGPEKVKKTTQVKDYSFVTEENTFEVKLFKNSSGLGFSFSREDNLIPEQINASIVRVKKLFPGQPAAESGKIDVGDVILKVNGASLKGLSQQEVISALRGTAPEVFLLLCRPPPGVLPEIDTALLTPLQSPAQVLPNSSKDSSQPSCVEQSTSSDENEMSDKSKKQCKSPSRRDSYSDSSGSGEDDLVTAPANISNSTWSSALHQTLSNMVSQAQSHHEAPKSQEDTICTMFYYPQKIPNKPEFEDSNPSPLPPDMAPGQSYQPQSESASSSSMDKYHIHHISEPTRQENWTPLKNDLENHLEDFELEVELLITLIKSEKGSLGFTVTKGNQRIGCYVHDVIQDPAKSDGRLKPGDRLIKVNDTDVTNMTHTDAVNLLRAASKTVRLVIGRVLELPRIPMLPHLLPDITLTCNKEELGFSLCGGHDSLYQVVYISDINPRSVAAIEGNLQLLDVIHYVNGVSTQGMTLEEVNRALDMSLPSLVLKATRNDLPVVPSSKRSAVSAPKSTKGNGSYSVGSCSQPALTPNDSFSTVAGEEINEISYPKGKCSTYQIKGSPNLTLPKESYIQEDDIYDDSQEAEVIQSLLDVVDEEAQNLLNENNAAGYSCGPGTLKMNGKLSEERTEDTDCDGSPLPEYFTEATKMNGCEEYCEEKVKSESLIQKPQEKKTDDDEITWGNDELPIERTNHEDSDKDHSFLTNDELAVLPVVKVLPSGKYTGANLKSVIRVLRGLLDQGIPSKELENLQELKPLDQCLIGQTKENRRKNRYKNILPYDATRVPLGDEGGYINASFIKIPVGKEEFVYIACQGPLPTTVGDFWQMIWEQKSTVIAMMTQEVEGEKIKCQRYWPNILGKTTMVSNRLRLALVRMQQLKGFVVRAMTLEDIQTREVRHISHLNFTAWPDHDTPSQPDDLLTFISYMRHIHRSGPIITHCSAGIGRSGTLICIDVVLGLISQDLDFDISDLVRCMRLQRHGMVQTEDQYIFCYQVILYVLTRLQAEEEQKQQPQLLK
T3 sequence (Q6P0Q8 whole entry, the tested form may be a part): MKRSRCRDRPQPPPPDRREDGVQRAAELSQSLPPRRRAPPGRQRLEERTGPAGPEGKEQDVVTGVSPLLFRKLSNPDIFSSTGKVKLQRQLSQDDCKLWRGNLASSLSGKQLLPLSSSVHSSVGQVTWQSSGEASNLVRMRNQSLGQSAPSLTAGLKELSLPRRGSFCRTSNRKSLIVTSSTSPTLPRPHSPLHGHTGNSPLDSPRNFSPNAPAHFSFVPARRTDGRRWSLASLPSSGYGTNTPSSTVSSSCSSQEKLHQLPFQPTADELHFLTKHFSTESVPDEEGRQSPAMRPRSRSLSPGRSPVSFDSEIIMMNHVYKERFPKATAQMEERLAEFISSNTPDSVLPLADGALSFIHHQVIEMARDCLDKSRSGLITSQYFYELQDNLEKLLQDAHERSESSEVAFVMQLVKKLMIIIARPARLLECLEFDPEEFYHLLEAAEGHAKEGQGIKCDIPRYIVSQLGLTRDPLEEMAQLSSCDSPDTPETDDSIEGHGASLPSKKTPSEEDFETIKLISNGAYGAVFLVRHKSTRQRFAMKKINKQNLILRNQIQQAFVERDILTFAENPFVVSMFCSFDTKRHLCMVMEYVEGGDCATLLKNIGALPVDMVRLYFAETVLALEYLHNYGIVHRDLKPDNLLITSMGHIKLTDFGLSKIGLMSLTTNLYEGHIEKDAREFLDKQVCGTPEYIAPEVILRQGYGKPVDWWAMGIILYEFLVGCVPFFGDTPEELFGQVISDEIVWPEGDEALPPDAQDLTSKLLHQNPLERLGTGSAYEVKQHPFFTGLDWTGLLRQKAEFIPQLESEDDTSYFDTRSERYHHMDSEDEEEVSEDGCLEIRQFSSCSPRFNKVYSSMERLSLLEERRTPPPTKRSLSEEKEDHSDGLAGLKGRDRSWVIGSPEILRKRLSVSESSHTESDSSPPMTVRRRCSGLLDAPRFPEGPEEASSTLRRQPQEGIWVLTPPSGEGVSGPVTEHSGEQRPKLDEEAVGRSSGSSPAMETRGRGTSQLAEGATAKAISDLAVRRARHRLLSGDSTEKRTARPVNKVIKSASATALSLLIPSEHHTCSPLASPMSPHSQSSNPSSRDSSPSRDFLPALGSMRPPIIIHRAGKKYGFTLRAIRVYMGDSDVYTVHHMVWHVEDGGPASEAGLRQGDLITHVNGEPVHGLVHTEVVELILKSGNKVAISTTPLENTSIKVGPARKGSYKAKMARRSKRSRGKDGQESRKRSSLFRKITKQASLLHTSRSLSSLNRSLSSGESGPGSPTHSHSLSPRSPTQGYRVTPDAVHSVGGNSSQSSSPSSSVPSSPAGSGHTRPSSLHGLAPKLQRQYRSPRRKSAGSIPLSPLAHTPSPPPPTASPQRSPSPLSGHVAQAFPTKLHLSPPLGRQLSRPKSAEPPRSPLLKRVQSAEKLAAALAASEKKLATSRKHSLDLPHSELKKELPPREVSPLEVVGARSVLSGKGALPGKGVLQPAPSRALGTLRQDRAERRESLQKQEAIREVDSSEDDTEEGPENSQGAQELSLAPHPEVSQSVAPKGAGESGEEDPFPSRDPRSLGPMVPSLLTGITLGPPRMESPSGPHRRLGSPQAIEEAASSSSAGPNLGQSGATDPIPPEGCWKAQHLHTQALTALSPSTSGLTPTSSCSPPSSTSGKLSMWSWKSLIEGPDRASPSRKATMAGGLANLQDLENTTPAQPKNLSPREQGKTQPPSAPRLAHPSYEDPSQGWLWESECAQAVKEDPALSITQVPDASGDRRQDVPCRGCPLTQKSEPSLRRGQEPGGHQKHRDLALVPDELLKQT

Row | Molecule | Classification ([1]; PDZ KIAA1634, PDZ Domain 1) | Classification ([2]; PDZ MUPP-1, PDZ Domain 11) | Classification ([3]; PDZ KIAA0807(S), PDZ Domain 1) | Classification [3, 5] | Classification ([4]; PDZ PTPL-1, PDZ Domain 4) | further results
1 | CKR5_HUMAN (ERASSVYTRSTGEQEISVGL) | 1 (A450 nm 0-1) |  |  |  |  | 
2 | ARHRVTSYTSSSVNVSSNL (Biotin-ARHRVTSYTSSSVNVSSNL) [IL-8RB] | 1 (A450 nm 0-1) |  |  |  |  | Classification ([2]; PDZ MUPP-1, PDZ Domain 13): 1 (A450 nm 0-1); Classification ([1]; PDZ KIAA1634, PDZ Domain 5): 1 (A450 nm 0-1)
3 | CC(C)C[C@H](NC(=O)[C@H](Cc1c[nH]c2ccccc12)NC(=O)[C@H](Cc1c[nH]cn1)NC(=O)[C@H](CCCNC(=N)N)NC(=O)[C@H](CC(C)C)NC(=O)[C@@H](NC(=O)[C@H](Cc1ccccc1)NC(=O)[C@H](CCC(N)=O)NC(=O)[C@H](CCCNC(=N)N)NC(=O)[C@@H](NC(=O)[C@H](CCC(=O)O)NC(=O)CNC(=O)[C@H](CCCNC(=N)N)NC(=O)[C@H](CC(=O)O)NC(=O)[C@@H](NC(=O)[C@H](CC(C)C)NC(=O)[C@H](CCC(=O)O)NC(=O)[C@H](CCCNC(=N)N)NC(=O)CCCC[C@@H]1SC[C@@H]2NC(=O)N[C@@H]21)C(C)C)C(C)C)[C@@H](C)O)C(=O)N[C@@H](CCCCN)C(=O)N[C@H](C(=O)O)C(C)C [Dopamine transporter (Na+-dependent)] (Biotin-RELVDRGEVRQFTLRHWLKV-OH; C-terminus assumed) | 3 (A450 nm 2-3) |  | 4 (A450 nm 3-4) |  | 3 (A450 nm 2-3) | Classification ([3]; PDZ KIAA807): 4 (A450 nm 3-4)
4 | A2AC_HUMAN (Modified) (Biotin-DFRPSFKHILFRRARRGFRQ; not fully specified) |  |  |  |  |  | Classification ([2]; PDZ MUPP-1, PDZ Domain 4): 3 (A450 nm 2-3); Classification ([4]; PDZ PTPL-1, PDZ Domain 5): 3 (A450 nm 2-3)
5 | GPVPGEPAKPKTSAHHATFV (Biotin-GPVPGEPAKPKTSAHHATFV) |  | 1 (A450 nm 0-1) |  |  | 1 (A450 nm 0-1) | 
6 | LNETTETQRTLLNGDLQTSI (Biotin-LNETTETQRTLLNGDLQTSI) [SSTR2 (somatostatin recepor 2)] |  |  | 2 (A450 nm 1-2) | 2 (A450 nm 1-2) |  | 

The next lines start with results.

Row | Classification ([1]; PDZ KIAA1634, PDZ Domain 1) | Classification ([2]; PDZ MUPP-1, PDZ Domain 11) | Classification ([3]; PDZ KIAA0807(S), PDZ Domain 1) | Classification [3, 5] | Classification ([4]; PDZ PTPL-1, PDZ Domain 4) | Molecule | further results
7 |  | 2 (A450 nm 1-2) | 1 (A450 nm 0-1) | 1 (A450 nm 0-1) |  | KTMPAATYRLLTGQEQPVYL (Biotin-KTMPAATYRLLTGQEQPVYL) [MINT-3] | Classification ([2]; PDZ MUPP-1, PDZ Domain 3): 1 (A450 nm 0-1)
8 | 2 (A450 nm 1-2) |  | 5 (A450 nm of 4 more than 2× repeated) |  |  | ALVLIAFCIIRRRPSAYQAL (Biotin-ALVLIAFCIIRRRPSAYQAL) [CD68] | 
9 |  | 5 (A450 nm of 4 more than 2× repeated) | 4 (A450 nm 3-4) | 3 (A450 nm 2-3) | 4 (A450 nm 3-4) | KTMPAAMFRLLTGQETPLYI (Biotin-KTMPAAMFRLLTGQETPLYI) [MINT-2] | Classification ([2]; PDZ MUPP-1, PDZ Domain 2): 1 (A450 nm 0-1); Classification ([2]; PDZ MUPP-1, PDZ Domain 3): 1 (A450 nm 0-1); Classification ([2]; PDZ MUPP-1, PDZ Domain 7): 1 (A450 nm 0-1); Classification ([2]; PDZ MUPP-1, PDZ Domain 9): 1 (A450 nm 0-1)
10 | 1 (A450 nm 0-1) |  |  |  | 1 (A450 nm 0-1) | CC[C@H](C)[C@H](NC(=O)[C@H](CCC(=O)O)NC(=O)[C@H](CC(N)=O)NC(=O)[C@H](CCCNC(=N)N)NC(=O)[C@H](Cc1ccccc1)NC(=O)[C@H](CC(N)=O)NC(=O)[C@H](CO)NC(=O)[C@H](CC(N)=O)NC(=O)[C@H](CCC(=O)O)NC(=O)[C@H](CO)NC(=O)[C@H](CC(=O)O)NC(=O)[C@H](CO)NC(=O)[C@@H](NC(=O)[C@@H](NC(=O)[C@H](CC(=O)O)NC(=O)[C@H](CCCCN)NC(=O)CCCC[C@@H]1SC[C@@H]2NC(=O)N[C@@H]21)[C@@H](C)CC)[C@@H](C)O)C(=O)N[C@@H](CCC(N)=O)C(=O)N[C@@H](CO)C(=O)N[C@@H](CC(C)C)C(=O)N[C@H](C(=O)O)C(C)C [CD95] (Biotin-KDITSDSENSNFRNEIQSLV-OH; C-terminus assumed) | Classification ([4]; PDZ PTPL-1, PDZ Domain 2): 3 (A450 nm 2-3); Classification ([1]; PDZ KIAA1634, PDZ Domain 2): 1 (A450 nm 0-1); Classification ([1]; PDZ KIAA1634, PDZ Domain 4): 1 (A450 nm 0-1)
